Measured values from the nanobody polyreactivity screen of Harvey et al. (2022).

Experiment: yeast display, Sf9 membrane polyspecificity reagent, FACS + sequencing; frameworks hold sequencing errors
Summary of the method: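 Nanobodies came from a synthetic yeast display library in Saccharomyces cerevisiae BJ5465, induced with galactose for 36–48 hours and stained for 1 hour at 4 °C with 10% biotinylated, detergent-solubilized Sf9 membrane reagent. Cells were enriched on streptavidin microbeads and then FACS-sorted, with low and high (top ~1%) gates set on anti-HA fluorescence for expression and streptavidin fluorescence for reagent binding. Each polyreactivity label reflects the gate a clone came from. Genes were amplified by colony PCR, sequenced by MiSeq 2 × 250 and filtered by CDR length.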

Sequence	polyreactivity (PSR sort gate)
QVQLVESGGGLVQAGGSLRLSCAASGRIFYPYAMGLYRQAPGKEREFVADISSAGSTYYADSVKGRFTISRDNAKNTVYLQMNSLKPEDTAVYYCAADRTSGAYYFRFLYDRDYWGQGTQVTVSS	low polyreactivity
QVQLVESGGGLVQAGGSLRLSCAASGRIFYPYAMGWYRPAPGKERELVAAITVRGGRTYYADSVKWRFTISRDNAKNTVYLQMNSLKPEDTAVYYCNAVIGWYIGSRTYPHGPLQYDYWGQGTQVTLSS	high polyreactivity
QVQLVESGGGLVQAGGSLRLSCAASGRIFYPYAMGWYRQAPGKEREFVAAISYRGTSTFYADSVKGRFTISRDNAKNTVYLQMNSLKPEDTAVYYCAARVLWYGRATAAVTPYDYWGQGTQVTVSS	high polyreactivity
QVQLVESGGGLVQAGGSLRLSCAASGRIFYPYAMGWYRQAPGKERELVAAIDWTAGGTYYADSVKGRFTISRDNAKNTVYLQMNSLKPEDTAVYYCAAEYYIEANGDYWGLGTQVTVSS	low polyreactivity
QVQLVESGGGLVQAGGSLRLSCAASGRIFYPYAMGWYRQAPGKERELVAAIRISGGSTYYADSVKGRFTISRDNAKNTVYLQMISLNPEDTAVYYCNASARLQPAYSWFYYWGQGTQVTVSS	high polyreactivity
QVQLVESGGGLVQAGGSLRLSCAASGRIFYPYAMGWYRQAPGKERELVAAISYSGGSTFYADSVKGRFTISRDNAKNTVYLQMNSLKPEDTAVYYCIKPGLYIYGSWGQGTQVTVSS	high polyreactivity
QVQLVESGGGLVQAGGSLRLSCAASGRIFYPYAMGWYRQAPGKERELVASITSGGGTYYADSVKGRFTISRDNAKNSVYLQMNSLKPEDTAVYYCAAKYYTSWIRYDYWGQGTQVTVSS	low polyreactivity
QVQLVESGGGLVQAGGSLRLSCAASGRIFYPYAMGWYRQPPGKERELVAAIDKGGGSTYYADSVKGRFTISRDNAKNTVYLQMNSLKPEDTAVYYCAAGWEYPYDYWGQGTQVTVSS	low polyreactivity
QVQLVESGGGLVQAGGSLRLSCAASGRIFYQNTMGWYRQAPGKEREFVARINWSGGSTYYADSVKGRFTISRDNAKITVYLQMNSLKPEDTAVYYWAKASQSWGRDDYYYWGQGTQVTVSS	low polyreactivity
QVQLVESGGGLVQAGGSLRLSCAASGRIFYQNTMGWYRQAPGKERELVASISTTGGNTYYADSVKGRFTISRDNAKNTVYLQMNSLKPEDTAVYYCNAVRSVYLYGYIYGVDYWGQGTQVTVSS	low polyreactivity
QVQLVESGGGLVQAGGSLRLSCAASGRIFYRNAMGGSRQAPGKERELVAAISYSGGSTYYADSVKGRFTISRDNAKNTVYLQMNSLKPEDTAVYYCAAARDRWGNYWGQGTQVTVSS	high polyreactivity
QVQLVESGGGLVQAGGSLRLSCAASGRIFYRNAMGWYRQAPGKERELVAAINWSGGSTYYADSVKGRFTISRDNAKNTVYLQMNSLKPEDTAVYYCATGYRQGEYDYWGQGTQVTVSS	low polyreactivity
QVQLVESGGGLVQAGGSLRLSCAASGRIFYRNAMGWYRQAPGKERELVAAISSGGITNYADSVKGRFTISRDNAKNTVYLQMNSLKPEDTAVYYCNADAYRLPGYTFGYWGQGTQVTVSS	high polyreactivity
QVQLVESGGGLVQAGGSLRLSCAASGRIFYRNAMGWYRQAPGTDRELVARITSSGGTTYYADSVKGRFTISRDNAKNTVYLQMNSLQPEDTAVYYCAARSVTQRKMYYWGQGTQVTVSS	high polyreactivity
QVQLVESGGGLVQAGGSLRLSCAASGRIFYRYAMGCYRQAPGKERELVAGIRSRGGRTYYADSVKGRFTISRDNAKNTVYLQMNSLKPEDTAVYYCAARYLSGTSRYYYWGQGTQVTVSS	high polyreactivity
QVQLVESGGGLVQAGGSLRLSCAASGRIFYRYAMGWSRQAPGKERELVASITTSGDSTYYADSVKGRFTISRDNAKNTVYLQMNSLKPEDTAVYYCAARSYRGRRYDYWGQGTQVTVSS	high polyreactivity
QVQLVESGGGLVQAGGSLRLSCAASGRIFYRYAMGWYRQAPGKEMELVASITRSGITHYADSVKGRFTISRDNAKNTVYLQKNSLKPEDTEVYYCNARRGSPAPYDYWGQGTQVTVSS	high polyreactivity
